This assay concerns the target T1, IR-A in cell membranes of human IM-9 lymphocytes (human (endogenous in IM-9), UniProt P06213-2 28-1370).
T1 construct: human insulin receptor, isoform A (IR-A); Heterotetramer (alpha alpha' beta beta') of two protomers, each cut into an alpha and a beta subunit; written as one chain for the protomer; In the functional rows this molecule stands for human IR-A stably transfected in mouse embryonic fibroblasts; also called insulin receptor; source: endogenous, cell membranes of human IM-9 lymphocytes (ATCC)
Description: radioligand binding; competition with [125I]-monoiodotyrosyl-TyrA14-insulin for IR-A in cell membranes of human IM-9 lymphocytes; each curve in duplicate, Kd from at least three curves; non-linear regression for one site binding with ligand depletion. The following applies: one partner purified.

Positions of bridges follow the written chain, without caps; N, C: chain ends. Chains are numbered I, II in the order given. No end group written: not given here. adamantane scaffold = adamantane core scaffold to which the peptide C-termini are attached

One may read the Kd as the concentration at which binding is half-saturated. Lower therefore signals a tighter complex.

T1 sequence (P06213 other isoform, or with tags, fused parts or gaps): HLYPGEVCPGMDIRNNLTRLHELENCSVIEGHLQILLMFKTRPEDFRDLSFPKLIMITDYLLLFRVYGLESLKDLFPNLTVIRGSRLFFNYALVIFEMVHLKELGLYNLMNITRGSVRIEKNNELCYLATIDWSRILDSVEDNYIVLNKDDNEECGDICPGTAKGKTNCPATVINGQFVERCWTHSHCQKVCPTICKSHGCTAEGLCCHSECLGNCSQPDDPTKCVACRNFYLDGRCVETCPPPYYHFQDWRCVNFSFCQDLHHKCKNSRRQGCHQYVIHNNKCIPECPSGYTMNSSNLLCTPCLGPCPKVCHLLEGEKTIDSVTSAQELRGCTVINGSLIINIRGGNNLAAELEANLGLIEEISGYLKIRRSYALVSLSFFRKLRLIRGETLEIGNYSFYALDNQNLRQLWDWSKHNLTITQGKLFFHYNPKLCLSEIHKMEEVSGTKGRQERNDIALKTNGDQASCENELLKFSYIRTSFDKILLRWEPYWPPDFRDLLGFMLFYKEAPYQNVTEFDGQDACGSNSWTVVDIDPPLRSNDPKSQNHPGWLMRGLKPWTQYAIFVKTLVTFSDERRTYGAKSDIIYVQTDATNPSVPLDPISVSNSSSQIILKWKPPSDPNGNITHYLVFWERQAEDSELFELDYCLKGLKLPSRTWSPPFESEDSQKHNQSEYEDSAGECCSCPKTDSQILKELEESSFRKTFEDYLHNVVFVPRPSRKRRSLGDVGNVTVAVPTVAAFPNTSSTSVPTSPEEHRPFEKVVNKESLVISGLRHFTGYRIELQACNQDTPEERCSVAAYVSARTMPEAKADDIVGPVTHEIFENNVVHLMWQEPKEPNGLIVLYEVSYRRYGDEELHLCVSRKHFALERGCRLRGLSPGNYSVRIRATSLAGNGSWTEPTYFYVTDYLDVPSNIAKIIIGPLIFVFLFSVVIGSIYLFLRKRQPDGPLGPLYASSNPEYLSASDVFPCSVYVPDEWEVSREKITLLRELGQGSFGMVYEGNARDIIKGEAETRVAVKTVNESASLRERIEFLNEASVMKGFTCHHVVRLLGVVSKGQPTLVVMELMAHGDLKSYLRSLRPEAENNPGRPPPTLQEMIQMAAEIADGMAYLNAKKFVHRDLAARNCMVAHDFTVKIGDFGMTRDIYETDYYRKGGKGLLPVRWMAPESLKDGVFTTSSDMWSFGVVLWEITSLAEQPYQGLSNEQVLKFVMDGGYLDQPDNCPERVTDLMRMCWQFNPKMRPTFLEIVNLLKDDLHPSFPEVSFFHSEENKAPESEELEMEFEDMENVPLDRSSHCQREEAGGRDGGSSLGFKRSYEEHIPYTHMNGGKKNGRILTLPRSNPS

B1: Trim insulin mimetic (designed binder)
peptide 1: Ac-FYDWFERQ
peptide 2: SLEEEWAQ
modifications: linker I:C-II:C via trimesic acid scaffold; not fully specified (C-terminus); also: linker at chain A 8 at chain B 8 to a chain's C-terminus via trimesic acid scaffold
notes: minimal Site-1 peptide, derived from the phage display peptides S597 and S661; minimal Site-2 peptide, derived from the phage display peptides S597 and S661; Two peptides joined through their C-termini by a trimesic acid scaffold; also called antagonist; source: synthetic (solid-phase peptide synthesis)
For B1, binding was characterised by a dissociation constant (Kd) of 1260 nM. This counts as single-digit micromolar.

B2: Ada insulin mimetic (designed binder)
peptide 1: Ac-FYDWFERQ
peptide 2: SLEEEWAQ
modifications: linker I:C-II:C via adamantane scaffold; not fully specified (C-terminus); also: mixture of two diastereoisomers
notes: minimal Site-1 peptide, derived from the phage display peptides S597 and S661; minimal Site-2 peptide, derived from the phage display peptides S597 and S661; Two peptides joined through their C-termini by an adamantane scaffold; Ada is an inseparable mixture of two diastereoisomers; only one fits the cryo-EM density; also called antagonist; source: synthetic (solid-phase peptide synthesis)
For B2, the affinity, expressed as Kd, was 395 nM.

Values taken from paper doi:10.1101/2025.08.05.667158, “Antagonistic insulin mimetics lock the insulin receptor in an alternative apo-state” (bioRxiv, 2025).
